Measured values published in a protein production outcome set (Wang et al. 2014).

Test: label from the status in PepcDB records

Sequence | protein production
MDKVFAPWRIEWVEREKTNPDVDCVFCAFQAQDDDRANNLVARSDHAFVLLNNYPYNPGHVMVIPHTHTGEYGDLDDKTLLDHGRLKQRTFDALETALSPDAFNAGLNLGGSAAGGSIDDHLHTHVVPRWNGDTNFMPVISDTKVIVEAVEETYDRLYAAFASQDGTTAPEDGAVRIE | failed
MSLSLKIALISQNENLLNLFPKLALEKNFIPITKTASLTRASKIAFGLQDEVDAIISRGATSDYIKKSVSIPSISIKVTRFDTMRAVYNAKRFGNELALIAYKHSIVDKHEIEAMLGVKIKEFLFSSEDEITTLISKVKTENIKIVVSGKTVTDEAIKQGLYGETINSGEESLRRAIEEALNLIEVRNEGHHHHHH | not failed
